Test results reported in article PMC3713477.

Test system: 3E10 lupus anti-DNA autoantibody (mouse)
Assay: EMSA
Conditions: 0-10 uM 3E10, 30 min at 4 C, buffer, salt and pH not given (ref 28)

blunt-end duplex DNA
Kd: 400 nM

duplex DNA with 3' single-stranded tail
Kd: 200 nM

duplex DNA with 5' single-stranded tail
Kd: 200 nM

duplex DNA with internal bubble (heterology)
Kd: 400 nM

duplex DNA with splayed single-stranded ends
Kd: 200 nM

single-stranded DNA
Kd: 200 nM
